Laboratory results taken from US20240299584A1, “NON-CODING RNA PROTECTING AGAINST HEART FAILURE” (MEDIZINISCHE HOCHSCHULE HANNOVER, priority 2019, published 2024).

Columns and labels:
HL-1 cells [1] = test: Analysis of mitochondrial fission (MitoTracker); format: cell-based, mouse; settings: doxorubicin 0.25 μM 48 h, circ-Insr by overexpression plasmid vs negative control
Description: Based on the results of the foregoing examples, it was reasoned that circ-Insr could interact with SSBP1. To further confirm the interaction between circ-Insr and SSBP1, siRNA mediated circ-Insr knock-down was applied in HL-1 cells. Next, RNA pulldown was performed with circ-Insr and scramble biotinylated probes. RT-qPCR confirmed that decrease of circ-Insr appeared both in input and circ-Insr pulldown group (FIG. 23A). […] Therefore, we assumed that circ-Insr is a cofactor of SSBP1 resulting in the regulation of mitochondrial function in cardiomyocytes by stabilizing mtDNA. […] Furthermore, mito-damage assay was applied to measure the changes in mitochondrial membrane potential (MMP). […]
Mitochondrial fission was analysed by staining mitochondria via MitoTracker® Deep Red FM (Cell Signalling) (Aung L H H, Li R B, Prabhakar B S, Maker A V, Li P F. Mitochondrial protein 18 (MTP18) plays a pro-apoptotic role in chemotherapy-induced gastric cancer cell apoptosis. Oncotarget. 2017; 8:56582-97). […] Mitochondria were imaged using Nikon Eclipse Ti microscope with 60× oils Objective (CFI Plan Apo Lambda 60× Oil) and images were analyzed with NIS Elements. To quantitatively analyse cells with mitochondria fission, those cells with disintegrated mitochondria were considered as fission. The total cell numbers were counted via Hochest 33342. […] More than 150 cells in 10-15 random fields were counted.

HL-1 cells [2] = test: Annexin V & 7-AAD staining (apoptosis); format: cell-based, mouse; settings: HL-1 cells treated with doxorubicin 0.25 μM 48 h
Description: HL-1 cells were cultured in Claycomb medium together with 10% FBS, norepinephrine, L-Glutamine and pencillin/streptomycin as manufacturer's protocol. 3T3 and RAW264.7 cells were cultured in DMEM with 10% FBS and pencillin/streptomycin. Neonatal rat cardiomyocytes (NRCM) were isolated from one to three-day old rat babies by using the Neonatal Heart Dissociation Kit (Miltenyi). Human iPSC derived cardiomyocytes (hiPSC-cm) were differentiated at the lab of IMTTS. All the cells were treated with 0.25 μM Doxorubicin (Sigma-Aldrich) for 48 hours. circ-Insr siRNA (Eurofins), in vitro circular RNA and overexpression plasmid were transfected with Lipofectamine 2000 (Life Technologies) in OptiMEM medium. NRCM and hipsc-CM were transduced by AAV6 (MOI: 1*10^4) for 72 hours.
FlowCellect Annexin Red kit (Millipore) was used to stain apoptotic cells as per the manufacturer instruction. Briefly, cells were seeded in 12 well plate and next day treated with 0.25 μM Doxorubicin in normal medium with 10% FBS for forty-eight hours. Then cells were trypsinized and harvested and stained with Annexin-V for 15 minutes at 37° C. in 1× assay buffer. Annexin-V stained cells were centrifuged and washed with 1× assay buffer. Next cells were incubated with 7-AAD for 5 minutes and acquired on Guava (Millipore) flow cytometer. Data was analyzed with FLOWJO software.

B1: circINSR: circRNA formed through backsplicing of the second exon of the insulin receptor gene transcript; overexpressed from plasmid or AAV (nucleic acid, listed as Homo sapiens)
chain: UGUGUCCCGGCAUGGAUAUCCGGAACAACCUCACUAGGUUGCAUGAGCUGGAGAAUUGCUCUGUCAUCGAAGGACACUUGCAGAUACUCUUGAUGUUCAAAACGAGGCCCGAAGAUUUCCGAGACCUCAGUUUCCCCAAACUCAUCAUGAUCACUGAUUACUUGCUGCUCUUCCGGGUCUAUGGGCUCGAGAGCCUGAAGGACCUGUUCCCCAACCUCACGGUCAUCCGGGGAUCACGACUGUUCUUUAACUACGCGCUGGUCAUCUUCGAGAUGGUUCACCUCAAGGAACUCGGCCUCUACAACCUGAUGAACAUCACCCGGGGUUCUGUCCGCAUCGAGAAGAACAAUGAGCUCUGUUACUUGGCCACUAUCGACUGGUCCCGUAUCCUGGAUUCCGUGGAGGAUAAUUACAUCGUGUUGAACAAAGAUGACAACGAGGAGUGUGGAGACAUCUGUCCGGGUACCGCGAAGGGCAAGACCAACUGCCCCGCCACCGUCAUCAACGGGCAGUUUGUCGAACGAUGUUGGACUCAUAGUCACUGCCAGAAAG
modifications: circular RNA; RNA sequence
notes: circRNA formed through backsplicing of the second exon of the insulin receptor gene transcript; overexpressed from plasmid or AAV
percentage of cells undergoing mitochondrial fission (HL-1 cells [1]): significantly reduce | apoptotic cells (Annexin V) (HL-1 cells [2]): significantly lower levels of apoptosis
